Laboratory results published in article PMC3865722 (2014).

Key:
Assay in all cases: competitive inhibition of Tra2β
[1] = target: T1, Tra2β(ΔN/RS2) RRM and N-terminal half of C-terminal RS domain (Homo sapiens, UniProt P62995)
T1 chain: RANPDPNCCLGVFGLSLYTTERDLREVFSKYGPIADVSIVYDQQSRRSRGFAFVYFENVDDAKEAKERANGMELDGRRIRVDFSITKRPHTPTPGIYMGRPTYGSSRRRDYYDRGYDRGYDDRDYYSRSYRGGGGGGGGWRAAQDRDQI

[2] = target: T2, Tra2β(ΔN/RRM) C-terminal RS domain (Homo sapiens, UniProt P62995)
T2 chain: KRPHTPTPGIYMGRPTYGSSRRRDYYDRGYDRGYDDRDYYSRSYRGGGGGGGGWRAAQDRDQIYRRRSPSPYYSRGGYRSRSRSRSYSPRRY

[3] = target: T3, Tra2β(ΔN) 114-288 (Homo sapiens, UniProt P62995)
T3 chain: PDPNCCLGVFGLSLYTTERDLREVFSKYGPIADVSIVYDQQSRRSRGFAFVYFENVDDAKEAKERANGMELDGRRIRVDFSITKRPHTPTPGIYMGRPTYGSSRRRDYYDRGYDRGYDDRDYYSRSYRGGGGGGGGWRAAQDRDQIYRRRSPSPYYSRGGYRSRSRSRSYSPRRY

B1: SRPK1 (protein)
chain: MERKVLALQARKKRTKAKKDKAQRKSETQHRGSAPHSESDLPEQEEEILGSDDDEQEDPNDYCKGGYHLVKIGDLFNGRYHVIRKLGWGHFSTVWLSWDIQGKKFVAMKVVKSAEHYTETALDEIRLLKSVRNSDPNDPNREMVVQLLDDFKISGVNGTHICMVFEVLGHHLLKWIIKSNYQGLPLPCVKKIIQQVLQGLDYLHTKCRIIHTDIKPENILLSVNEQYIRRLAAEATEWQRSGAPPPSGSAVSTAPQPKPADKMSKNKKKKLKKKQKRQAELLEKRMQEIEEMEKESGPGQKRPNKQEESESPVERPLKENPPNKMTQEKLEESSTIGQDQTLMERDTEGGAAEINCNGVIEVINYTQNSNNETLRHKEDLHNANDCDVQNLNQESSFLSSQNGDSSTSQETDSCTPITSEVSDTMVCQSSSTVGQSFSEQHISQLQESIRAEIPCEDEQEQEHNGPLDNKGKSTAGNFLVNPLEPKNAEKLKVKIADLGNACWVHKHFTEDIQTRQYRSLEVLIGSGYNTPADIWSTACMAFELATGDYLFEPHSGEEYTRDEDHIALIIELLGKVPRKLIVAGKYSKEFFTKKGDLKHITKLKPWGLFEVLVEKYEWSQEEAAGFTDFLLPMLELIPEKRATAAECLRHPWLNS
B1 gave a Ki [1] of 180 nM, a Ki [2] of 45 nM and a Ki [3] of 11 nM.
